The target in the test is human CD40L protein translated from transfected CD40L mRNA (pCR2.1 CD40L WT, >100 nucleotide polyA tail) (human) (UniProt P29965). Description: cell-based or functional assay.

Drawing on patent US20070082400A1, this text covers IL-12p70 (pg/ml), 'Cocktail' matured and reactivated DCs co-cultured with CD40L mRNA-transfected HeLa cells plus IFN-gamma plus 24-31 and IL-12p70 release by CD40L mRNA-transfected DCs cultured with IFN-gamma and 10 or 50 ug/ml blocking anti-CD40L antibody for 1 substance.

Sequence of UniProt P29965 (P29965 whole entry): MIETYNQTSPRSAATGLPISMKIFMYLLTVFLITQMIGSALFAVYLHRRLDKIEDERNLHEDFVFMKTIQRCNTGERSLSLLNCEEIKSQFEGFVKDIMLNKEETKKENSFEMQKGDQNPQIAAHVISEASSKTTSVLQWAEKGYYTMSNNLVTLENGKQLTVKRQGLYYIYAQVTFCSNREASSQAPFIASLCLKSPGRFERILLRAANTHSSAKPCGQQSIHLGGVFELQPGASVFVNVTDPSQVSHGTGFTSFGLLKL

For the substance “blocking CD40L monoclonal antibody 24-31 (eBioscience)”, the IL-12p70 (pg/ml), 'Cocktail' matured and reactivated DCs co-cultured with CD40L mRNA-transfected HeLa cells plus IFN-gamma plus 24-31 is 2.5 pg/mL; the IL-12p70 release by CD40L mRNA-transfected DCs cultured with IFN-gamma and 10 or 50 ug/ml blocking anti-CD40L antibody turned out to be 50%.
